{"source": "paper PMC1072803", "target": "T1, CREB-HZ (CREB-H bZIP region) (Mus musculus, UniProt Q91XE9 206-318)", "T1 sequence": "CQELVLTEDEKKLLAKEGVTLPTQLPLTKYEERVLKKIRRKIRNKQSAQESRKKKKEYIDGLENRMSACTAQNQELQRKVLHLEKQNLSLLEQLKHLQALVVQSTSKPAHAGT", "experiment": "competition", "data": [{"binder": "box B, alcohol dehydrogenase-1 gene (dsDNA) DNA 1: GATCTTGTACACGTAATCGTAGGATCC DNA 2: GGATCCTACGATTACGTGTACAAGATC", "values": [{"measurement": "binding result", "value": "binds"}]}]}
